# Experimental data as given in patent US20210032342A1 (Merck Sharp & Dohme, published 2021).
# T1: human LAG-3 expressed by the CD4+ T-cell clone BC4-49 (human, UniProt P18627 23-525)
# T1 construct: whole, on cells
# T1 sequence (looked up): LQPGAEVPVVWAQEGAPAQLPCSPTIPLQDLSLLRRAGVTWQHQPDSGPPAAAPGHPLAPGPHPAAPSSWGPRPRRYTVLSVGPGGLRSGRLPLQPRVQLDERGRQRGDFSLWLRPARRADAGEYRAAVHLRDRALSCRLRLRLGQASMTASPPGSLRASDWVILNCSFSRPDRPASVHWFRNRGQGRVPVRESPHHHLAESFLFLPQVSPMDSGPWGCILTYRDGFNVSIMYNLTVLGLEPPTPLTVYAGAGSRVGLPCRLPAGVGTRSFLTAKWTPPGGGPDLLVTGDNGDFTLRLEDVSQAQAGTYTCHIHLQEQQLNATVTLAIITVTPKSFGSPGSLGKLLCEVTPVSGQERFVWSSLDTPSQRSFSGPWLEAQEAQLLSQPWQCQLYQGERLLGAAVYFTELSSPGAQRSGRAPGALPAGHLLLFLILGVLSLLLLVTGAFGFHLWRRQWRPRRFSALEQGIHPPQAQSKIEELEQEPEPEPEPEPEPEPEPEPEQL
# Key:
# [1] = biological target: human PD-1 expressed on cells (Jurkat.hPD-1.IL2luc clone DT999A1; CD4+ T cell clone BC4-49) (human, UniProt Q15116 25-288); experiment: cell-based or functional assay
# [2] = biological target: T2, polyhistidine-tagged human PD-1 (hPD1-His, 98AFK) (human, UniProt Q15116 25-167, limits assumed); experiment: SPR solution affinity; reference Humanized 08A IgG4 S61N (98AIO)
# T2 construct: also called human PD1-His; Human PD-1-His; not shown: polyhistidine tag
# Method: The titration series were incubated for 16-24 hours to reach equilibrium at room temperature. The unbound sites were measured using a BIAcore chip immobilized with antigen in a competition mode where SPR signal detected corresponded to unbound antibody.
# Free, unbound antibodies concentrations were measured as proportional to RU after 120 seconds (for 500 pM mAb series) or 400 seconds (for 100 pM mAb series) of injection at 10 μL/min.
# Data analyses were performed using KINEXA Pro Version 1.02 (Sapydyne) where RUs were normalized and plotted against concentrations.
# [3] = biological target: T1, human LAG-3 expressed by the CD4+ …; experiment: T-cell clone + JY.hPD-L1 co-culture (conclusion stated from IFNγ read-out)
# Method: The pellets were resuspended into single cell suspension in Yssel's medium. […] Fifty microliters of T cell suspension at a density of 4×10⁵ cells/mL was added into wells containing titrated antibodies. The antibody/T cell mixture was pre-incubated for 1 hour in an incubator at 37° C. with 5% CO₂. Human PD-L1 transgene expressing JY cells (JY.hPD-L1) were used in co-cultures to provide allo-specific antigens. […] The pellet was resuspended with Yssel's medium, and filtered with 40 μm cell strainer before plating. Fifty μL/well of JY.hPD-L1 suspension at a concentration of 2×10⁵ cells/mL was dispensed into pre-incubated antibody-T cells mixture, with T cell to JY.hPD-L1 cell ratio at 2:1. All conditions were run in duplicates. After approximately 3-day culture, 100 μL of supernatant per well was harvested for human IFNγ quantification. Human IFNγ ELISA was performed to assess IFNγ level on pooled supernatant from duplicates by using hIFNγ QUANTIKINE kit (R&D Systems, SIF50). Assays were run following the standard protocol provided by manufacturer. EC50 values were calculated using the [sequence] prism software.
# Sequence of human PD-1 expressed on cells (Jurkat.hPD-1.IL2luc clone DT999A1; CD4+ T cell clone BC4-49) (Q15116 25-288): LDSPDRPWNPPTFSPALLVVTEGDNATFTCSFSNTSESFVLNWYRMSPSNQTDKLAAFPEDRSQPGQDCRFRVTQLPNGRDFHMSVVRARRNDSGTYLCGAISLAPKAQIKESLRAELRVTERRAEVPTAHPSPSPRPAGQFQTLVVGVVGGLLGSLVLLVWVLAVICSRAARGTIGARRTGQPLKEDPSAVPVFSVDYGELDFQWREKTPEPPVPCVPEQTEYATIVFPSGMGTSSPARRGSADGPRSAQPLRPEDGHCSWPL
# T2 sequence (Q15116 25-167 limits assumed): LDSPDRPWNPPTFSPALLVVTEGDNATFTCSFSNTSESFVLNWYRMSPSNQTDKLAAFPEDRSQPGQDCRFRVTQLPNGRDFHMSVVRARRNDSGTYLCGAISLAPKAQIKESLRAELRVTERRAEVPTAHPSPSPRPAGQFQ
Binder,"AVG EC50, IL-2 luciferase reporter (Jurkat.hPD-1.IL2luc + THP-1.PD-L1 assay) [1] [nM]",KD (REF)/KD [2],binding result [3]
"Humanized x [PD-1_H] Fab (08A/HuPD1A-11 S61N WT) IgG4/Kappa (00APE) (Fab, V domains shown) VH: EVQLVQSGAEVKKPGASVKVSCKASGYTFTSYYLYWVRQAPGQGLEWIGGVNPSNGGTNFNEKFKSRVTLTVDTSISTAYMELSRLRSDDTAVYYCTRRDSNYDGGFDYWGQGTTVTVSS VL: DIVMTQTPLSLSVTPGQPASISCRASKSVSTSGFSYLHWYLQKPGQPPQLLIFLASNLESGVPDRFSGSGSGTDFTLKISRVEAEDVGVYYCQHSWELPLTFGQGTKLEIKR",3.32,,
"Humanized x [PD-1_H] mAb (08A/HuPD1A-11 S61N CP-affinity matured Fab 100 (VH H3G9 (D100L N102H) G56A/VL L28D1) L234A L235A D265S) IgG1/Kappa (25AVE) (antibody, V domains shown, also called Humanized 08A IgG4 Fab 100 S61N G56A) VH: EVQLVQSGAEVKKPGASVKVSCKASGYTFTSYYLYWVRQAPGQGLEWIGGVNPSNAGTNFNEKFKSRVTLTVDTSISTAYMELSRLRSDDTAVYYCTRRLSHYDGGFDYWGQGTTVTVSS VL: DIVMTQTPLSLSVTPGQPASISCRASKSVSTSGFSYLHWYLQKPGQPPQLLIFLSKYRSSGVPDRFSGSGSGTDFTLKISRVEAEDVGVYYCSQAYHLPLTFGQGTKLEIKR",,13,
"Anti-PD-1/LAG3 bispecific antibody 90ASU (bispecific antibody, human IgG1, kappa, L234A L235A, also called Humanized x [PD-1_H]; [LAG3_H]; BsAb (hu08A S61N G56A arm / 22D2 arm) IgG1/Kappa) heavy 1: not shown light 1: DIVMTQTPLSLSVTPGQPASISCRASKSVSTSGFSYLHWYLQKPGQPPQLLIFLASNLESGVPDRFSGSGSGTDFTLKISRVEAEDVGVYYCQHSWELPLTFGQGTKLEIKRTVAAPSVFIFPPSDERLKSGTASVVCLLNNFYPREAKVQWKVDNALQSGNSQESVTEQDSKDSTYSLSSRLTLSKADYEKHKVYACEVTHQGLSSPVTKSFNRGEC heavy 2: QMQLVQSGPEVKKPGTSVKVSCKASGYTFTDYNVDWVRQARGQRLEWIGDINPNDGGTIYAQKFQERVTITVDKSTSTAYMELSSLRSEDTAVYYCARNYRWFGAMDHWGQGTTVTVSSASTKGPSVFPLAPSSKSTSGGTAALGCLVKDYFPEPVTVSWNSGALTSGVHTFPAVLQSSGLYKLSSVVTVPSSSLGTQTYICNVNHKPSNTKVDKKVEPKSCDKTHTCPPCPAPEAAGGPSVFLFPPKPKDTLMISRTPEVTCVVVSVSHEDPEVKFNWYVDGVEVHNAKTKPREEQYNSTYRVVSVLTVLHQDWLNGKEYKCKVSNKALPAPIEKTISKAKGQPREPQVYVLPPSRDELTKNQVSLLCLVKGFYPSDIAVEWESNGQPENNYLTWPPVLDSDGSFFLYSKLTVDKSRWQQGNVFSCSVMHEALHNHYTQKSLSLSPG light 2: DIVMTQTPLSLSVTPGQPASISCKASQSLDYEGDSDMNWYLQKPGQPPQLLIYGASNLESGVPDRFSGSGSGTDFTLKISRVEAEDVGVYYCQQSTEDPRTFGGGTKVEIKRTVAAPSVFIFPPSDEELKSGTATVVCLLNNFYPREAKVQWKVDNALQSGNSQESVTEQDSKDSTYSLSSYLELSKADYEKHKVYACEVTHQGLSSPVTKSFNRGEC",2.54,,binds
"Anti-PD-1/LAG3 bispecific antibody 33ARK (bispecific antibody, human IgG1, kappa, L234A L235A) heavy 1: EVQLVQSGAEVKKPGASVKVSCKASGYTFTSYYLYWVREAPGQGLEWIGGVNPSNGGTNFNEKFKSRVTLTVDTSISTAYMELSRLRSDDTAVYYCTRRDSNYDGGFDYWGQGTTVTVSSASTKGPSVFPLAPSSKSTSGGTAALGCEVTDYFPEPVTVSWNSGALTSGVHTFPAVLESSGLYSLSSVVTVPSSSLGTQTYICNVNHKPSNTKVDKKVEPKSCDKTHTCPPCPAPEAAGGPSVFLFPPKPKDTLMISRTPEVTCVVVSVSHEDPEVKFNWYVDGVEVHNAKTKPREEQYNSTYRVVSVLTVLHQDWLNGKEYKCKVSNKALPAPIEKTISKAKGQPREPQVYVLPPSRDELTKNQVSLLCLVKGFYPSDIAVEWESNGQPENNYLTWPPVLDSDGSFFLYSKLTVDKSRWQQGNVFSCSVMHEALHNHYTQKSLSLSPG light 1: DIVMTQTPLSLSVTPGQPASISCRASKSVSTSGFSYLHWYLRKPGQPPQLLIFLASNLESGVPDRFSGSGSGTDFTLKISRVEAEDVGVYYCQHSWELPLTFGQGTKLEIKRTVAAPSVFIFPPSDERLKSGTASVVCLLNNFYPREAKVQWKVDNALQSGNSKESVTEQDSKDSTYSLSSRLTLSKADYEKHKVYACEVTHQGLSSPVTKSFNRGEC heavy 2: not shown light 2: DIVMTQTPLSLSVTPGQPASISCKASQSLDYEGDSDMNWYLEKPGQPPQLLIYGASNLESGVPDRFSGSGSGTDFTLKISRVEAEDVGVYYCQQSTEDPRTFGGGTKVEIKRTVAAPSVFIFPPSDEELKSGTASVVCLLNNFYPREAKVQWKVDNALQSGNSEESVTEQDSKDSTYSLSSTLELSKADYEKHKVYACEVTHQGLSSPVTKSFNRGEC",3.12,,
"Anti-PD-1/LAG-3 bispecific antibody (BsAb) 18ASS (bispecific antibody, human IgG1, kappa, L234A L235A) heavy 1: not shown light 1: DIVMTQTPLSLSVTPGQPASISCRASKSVSTSGFSYLHWYLQKPGQPPQLLIFLSKYRSSGVPDRFSGSGSGTDFTLKISRVEAEDVGVYYCSQAYHLPLTFGQGTKLEIKRTVAAPSVFIFPPSDERLKSGTASVVCLLNNFYPREAKVQWKVDNALQSGNSQESVTEQDSKDSTYSLSSRLTLSKADYEKHKVYACEVTHQGLSSPVTKSFNRGEC heavy 2: QMQLVQSGPEVKKPGTSVKVSCKASGYTFTDYNVDWVRQARGQRLEWIGDINPNDGGTIYAQKFQERVTITVDKSTSTAYMELSSLRSEDTAVYYCARNYRWFGAMDHWGQGTTVTVSSASTKGPSVFPLAPSSKSTSGGTAALGCLVKDYFPEPVTVSWNSGALTSGVHTFPAVLQSSGLYKLSSVVTVPSSSLGTQTYICNVNHKPSNTKVDKKVEPKSCDKTHTCPPCPAPEAAGGPSVFLFPPKPKDTLMISRTPEVTCVVVSVSHEDPEVKFNWYVDGVEVHNAKTKPREEQYNSTYRVVSVLTVLHQDWLNGKEYKCKVSNKALPAPIEKTISKAKGQPREPQVYVLPPSRDELTKNQVSLLCLVKGFYPSDIAVEWESNGQPENNYLTWPPVLDSDGSFFLYSKLTVDKSRWQQGNVFSCSVMHEALHNHYTQKSLSLSPG light 2: DIVMTQTPLSLSVTPGQPASISCKASQSLDYEGDSDMNWYLQKPGQPPQLLIYGASNLESGVPDRFSGSGSGTDFTLKISRVEAEDVGVYYCQQSTEDPRTFGGGTKVEIKRTVAAPSVFIFPPSDEELKSGTATVVCLLNNFYPREAKVQWKVDNALQSGNSQESVTEQDSKDSTYSLSSYLELSKADYEKHKVYACEVTHQGLSSPVTKSFNRGEC",0.55,,
